In patent US20210347873A1 (SHANGHAI PHARMAEXPLORER, published 2021):

T1: cynomolgus BLyS (full length, arginine to histidine at position 132) on CHO-K1 cells (cynomolgus, UniProt Q9Y275 1-285 (human entry))
T1 construct: also called cyno BLyS; CHO-K1 cynoBLyS
T1 chain: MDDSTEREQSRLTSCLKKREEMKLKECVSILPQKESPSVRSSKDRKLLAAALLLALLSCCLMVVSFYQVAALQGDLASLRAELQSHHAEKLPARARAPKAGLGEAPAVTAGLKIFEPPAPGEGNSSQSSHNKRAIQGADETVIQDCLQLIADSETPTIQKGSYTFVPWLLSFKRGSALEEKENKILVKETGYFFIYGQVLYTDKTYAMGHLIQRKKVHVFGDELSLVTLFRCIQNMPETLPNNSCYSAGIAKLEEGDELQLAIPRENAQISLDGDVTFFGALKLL


Columns and labels:
[1] = molecular target: hBLyS-ECD (His-tagged extracellular domain of human BLyS protein, Ala134-Leu285) (human, UniProt Q9Y275 134-285); test: cell-based or functional assay
[2] = molecular target: T2, human BLyS (full length, arginine to histidine at position 132) on CHO-K1 cells (human, UniProt Q9Y275 1-285); test: flow cytometry, CHO-K1 hBLyS cells, antibody 0.534 nM
T2 construct: also called hBLyS; CHO-K1 hBLyS
Experimental: (§1) The medium was aspirated completely, and the cells were rinsed once with PBS buffer (purchased from Invitrogen) and then treated with cell dispersion solution (TrypLE™ Express Enzyme, purchased from Life technology) and collected. The detailed steps are as follows: the cells were rinsed once with PBS buffer, after counting, the cells were diluted to 2×10⁶ cells/ml with PBS buffer, blocked with 2% (w/w) fetal bovine serum and incubated on ice for 30 minutes. 200 μL of which per well was aliquoted into a 96-well FACS plate and centrifuged at 2000 rpm at 4° C., then each 100 μL of the lead antibodies obtained from Embodiment 1 and 2 were aliquoted into each well and incubated on ice for 1 hour. […] After centrifuged and rinsed 3 times with FACS buffer, cells were suspended with 200 μL of FACS buffer and the results were detected and analyzed by FACS (FACS Calibur, purchased from BD). It was shown in Tables 12-13 that the lead antibody could bind to human BLyS protein on the cell surface and the lead antibody could cross-react with cynomolgus BLyS. The data in the table is MFI, the average fluorescence intensity of the cell population.

[3] = molecular target: T2, human BLyS (full length, arginine to …); test: flow cytometry, CHO-K1 hBLyS cells, antibody 0.0213 nM
Experimental: as §1

[4] = molecular target: T2, human BLyS (full length, arginine to …); test: flow cytometry, CHO-K1 hBLyS cells, antibody 66.7 nM
Experimental: as §1

[5] = molecular target: T1, cynomolgus BLyS (full length, arginine …); test: flow cytometry, CHO-K1 cynoBLyS cells, antibody 13.3 nM
Experimental: as §1

[6] = molecular target: T2, human BLyS (full length, arginine to …); test: flow cytometry, CHO-K1 hBLyS cells, antibody 0 nM
Experimental: as §1

[7] = molecular target: T1, cynomolgus BLyS (full length, arginine …); test: flow cytometry, CHO-K1 cynoBLyS cells, antibody 0.534 nM
Experimental: as §1

[8] = molecular target: T1, cynomolgus BLyS (full length, arginine …); test: flow cytometry, CHO-K1 cynoBLyS cells, antibody 0 nM
Experimental: as §1

[9] = molecular target: T2, human BLyS (full length, arginine to …); test: flow cytometry, CHO-K1 hBLyS cells, antibody 0.107 nM
Experimental: as §1

[10] = molecular target: T2, human BLyS (full length, arginine to …); test: flow cytometry, CHO-K1 hBLyS cells, antibody 0.00427 nM
Experimental: as §1

[11] = molecular target: T1, cynomolgus BLyS (full length, arginine …); test: flow cytometry, CHO-K1 cynoBLyS cells, antibody 0.00427 nM
Experimental: as §1

[12] = molecular target: T2, human BLyS (full length, arginine to …); test: flow cytometry, CHO-K1 hBLyS cells, antibody 2.67 nM
Experimental: as §1

mouse BLyS protein = mouse BLyS protein (mouse, UniProt Q9WU72 69-309); test: cell-based or functional assay
[13] = molecular target: T2, human BLyS (full length, arginine to …); test: flow cytometry, CHO-K1 hBLyS cells, antibody 13.3 nM
Experimental: as §1

[14] = molecular target: T1, cynomolgus BLyS (full length, arginine …); test: flow cytometry, CHO-K1 cynoBLyS cells, antibody 0.107 nM
Experimental: as §1

[15] = molecular target: T1, cynomolgus BLyS (full length, arginine …); test: flow cytometry, CHO-K1 cynoBLyS cells, antibody 66.7 nM
Experimental: as §1

[16] = molecular target: T1, cynomolgus BLyS (full length, arginine …); test: flow cytometry, CHO-K1 cynoBLyS cells, antibody 2.67 nM
Experimental: as §1

[17] = molecular target: T1, cynomolgus BLyS (full length, arginine …); test: flow cytometry, CHO-K1 cynoBLyS cells, antibody 0.0213 nM
Experimental: as §1

mouse BLyS protein, sequence (Q9WU72 69-309): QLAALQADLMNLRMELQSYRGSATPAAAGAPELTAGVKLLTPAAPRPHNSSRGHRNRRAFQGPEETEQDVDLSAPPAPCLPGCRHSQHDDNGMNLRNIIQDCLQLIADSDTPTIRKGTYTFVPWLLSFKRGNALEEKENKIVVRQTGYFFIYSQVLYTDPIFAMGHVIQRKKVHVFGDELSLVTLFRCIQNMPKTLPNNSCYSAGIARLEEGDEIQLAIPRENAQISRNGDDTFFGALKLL
T2 sequence (Q9Y275 whole entry R130H): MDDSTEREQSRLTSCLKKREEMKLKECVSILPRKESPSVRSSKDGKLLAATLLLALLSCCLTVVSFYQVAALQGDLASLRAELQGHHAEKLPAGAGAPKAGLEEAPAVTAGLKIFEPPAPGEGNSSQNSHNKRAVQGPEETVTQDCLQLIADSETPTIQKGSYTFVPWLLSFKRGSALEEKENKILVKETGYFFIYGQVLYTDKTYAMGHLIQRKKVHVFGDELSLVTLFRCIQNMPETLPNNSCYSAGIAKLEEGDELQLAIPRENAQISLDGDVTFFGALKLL

Row | MFI [2] | MFI [3] | MFI [4] | MFI [5] | MFI [6] | MFI [7] | MFI [8] | MFI [9] | MFI [10] | MFI [11] | MFI [12] | mouse B lymphocyte proliferation (OD450 nm), antibody 0 nM (mouse BLyS protein) | mouse B lymphocyte proliferation (OD450 nm), antibody 0.000256 nM (mouse BLyS protein) | mouse B lymphocyte proliferation (OD450 nm), antibody 0.00128 nM (mouse BLyS protein) | mouse B lymphocyte proliferation (OD450 nm), antibody 0.0064 nM (mouse BLyS protein) | mouse B lymphocyte proliferation (OD450 nm), antibody 0.032 nM (mouse BLyS protein) | mouse B lymphocyte proliferation (OD450 nm), antibody 0.16 nM (mouse BLyS protein) | mouse B lymphocyte proliferation (OD450 nm), antibody 0.8 nM (mouse BLyS protein) | mouse B lymphocyte proliferation (OD450 nm), antibody 4 nM (mouse BLyS protein) | mouse B lymphocyte proliferation (OD450 nm), antibody 20 nM (mouse BLyS protein) | Binder | also measured
1 | 192 MFI | 48.1 MFI | 431 MFI | 829 MFI | 31 MFI | 355 MFI | 21.2 MFI | 92.1 MFI | 37 MFI | 32.1 MFI | 374 MFI | 2090 OD450 nm | 2170 OD450 nm | 2270 OD450 nm | 2170 OD450 nm | 2390 OD450 nm | 2370 OD450 nm | 2640 OD450 nm | 2480 OD450 nm | 2640 OD450 nm | 89A2G5E7 (antibody, V domains shown, Mouse hybridoma monoclonal antibody purified on Protein G) VH: QVQLKESGPGLVAPSQSLSITCTVSGLSLNSHDISWIRQPPGKGLEWLGVIWSGGGTKYNSAFMSRLSISKDNSKSQVFLKMNSLHTDDTAIYYCVRTPSMITYSAMDYWGQGTSVTVSS VL: EIVLTQSPALMAASPGEKVTITCSVSSSISSRNLHWYQQKSQTSPKAWIHATSNLASGVPVRFSGSGSGTSYSLTISSMEAEDAATYYCQQWSSYPLTFGSGTKLEIK | mouse B lymphocyte proliferation (OD450 nm), antibody 0 nM [1]: 3440 OD450 nm; mouse B lymphocyte proliferation (OD450 nm), antibody 0.000256 nM [1]: 3120 OD450 nm; mouse B lymphocyte proliferation (OD450 nm), antibody 0.00128 nM [1]: 3700 OD450 nm; mouse B lymphocyte proliferation (OD450 nm), antibody 0.0064 nM [1]: 3700 OD450 nm; mouse B lymphocyte proliferation (OD450 nm), antibody 0.032 nM [1]: 3360 OD450 nm; mouse B lymphocyte proliferation (OD450 nm), antibody 0.16 nM [1]: 3270 OD450 nm; mouse B lymphocyte proliferation (OD450 nm), antibody 0.8 nM [1]: 530 OD450 nm; mouse B lymphocyte proliferation (OD450 nm), antibody 4 nM [1]: 431 OD450 nm; mouse B lymphocyte proliferation (OD450 nm), antibody 20 nM [1]: 433 OD450 nm; mouse B lymphocyte proliferation (OD450 nm), antibody 100 nM [1]: 414 OD450 nm; mouse B lymphocyte proliferation (OD450 nm), antibody 100 nM (mouse BLyS protein): 2480 OD450 nm; MFI [13]: 406 MFI; MFI [14]: 125 MFI; MFI [15]: 884 MFI; MFI [16]: 726 MFI; MFI [17]: 53.6 MFI
2 | 249 MFI | 61.3 MFI | 356 MFI | 636 MFI | 31.2 MFI | 480 MFI | 20.2 MFI | 132 MFI | 39.5 MFI | 37.7 MFI | 300 MFI | 1990 OD450 nm | 2210 OD450 nm | 2380 OD450 nm | 2240 OD450 nm | 2390 OD450 nm | 2410 OD450 nm | 2510 OD450 nm | 2340 OD450 nm | 2470 OD450 nm | 78C11D2D12 (antibody, V domains shown, Mouse hybridoma monoclonal antibody purified on Protein G) VH: QVQLQQSGAELVRPGTSVKISCKASGYAFTNYWLGWVKQRPGHGLEWIGDIYPGSGNTYYNEKFKGKATLTADKSSSTAYMQLSSLTSEDSAVFFCAAYLYAMDYWGQGTSVTVSS VL: QIVLTQSPAIMSASPGEKVTITCSASSSVSYMHWFQQKPGTSPKLWIYSASNLASGVPARFSGSGSGTSYSLTISRMEAEDAATYYCQQRGSYPFTFGSGTKLEIK | mouse B lymphocyte proliferation (OD450 nm), antibody 100 nM (mouse BLyS protein): 2480 OD450 nm; MFI [13]: 336 MFI; MFI [14]: 235 MFI; MFI [15]: 664 MFI; MFI [16]: 594 MFI; MFI [17]: 106 MFI
3 | 129 MFI | 37.1 MFI | 432 MFI | 738 MFI | 31.2 MFI | 213 MFI | 20.3 MFI | 60 MFI | 33.2 MFI | 24.7 MFI | 279 MFI | 2120 OD450 nm | 2390 OD450 nm | 2200 OD450 nm | 2110 OD450 nm | 2260 OD450 nm | 2330 OD450 nm | 2490 OD450 nm | 2410 OD450 nm | 2240 OD450 nm | 67A2E1D10 (antibody, V domains shown, Mouse hybridoma monoclonal antibody purified on Protein G) VH: EVQLQQSGAELVKPGASVKLSCTASGFNIKNYYMHWVKQRTEEGLEWIGRIDPEDGETKYAPKFQAKATITADTSSNTAYLQLSSLTSEDTAVYFCARKGYYGNYGAWFAYWGQGTLVTVSA VL: DIQMTQSPASLSVSVGETVTITCRASEDLYSNLAWYQQKQGKSPQLLVYAATFLADGVPSRFSGSGSGTQYSLKINSLQSEDFGNYYCQHFWGTPPTFGGGTKLEIK | mouse B lymphocyte proliferation (OD450 nm), antibody 100 nM (mouse BLyS protein): 2070 OD450 nm; MFI [13]: 371 MFI; MFI [14]: 76.6 MFI; MFI [15]: 842 MFI; MFI [16]: 518 MFI; MFI [17]: 35.3 MFI
